Results as given in the supplement of paper PMC5998384.

What was measured:
HeLa Kyoto [1] = assay: solubility change mitosis vs G1/S (difference of NP-40 vs SDS log2 ratios) (log2 ratio difference); higher = more soluble in mitosis
HeLa Kyoto [2] = assay: thermal stability score vs G1/S (z-score of summed log2 fold changes over temperatures); higher = more thermally stable than in G1/S
HeLa Kyoto [3] = assay: solubility in G1/S (NP-40 vs SDS abundance) (log2 ratio); higher = more soluble; conditions: cell cycle stage: G1/S
HeLa Kyoto [4] = assay: melting temperature (median over replicates), in situ; higher = more thermally stable
[5] = cell cycle stage: early G1 (4.5 h after nocodazole release)
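Wherever melting temperature (median over replicates), in situ is given: HeLa Kyoto cells synchronized by double thymidine or nocodazole block, proteins quantified by TMT10plex mass spectrometry, three independent biological replicates.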
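Wherever solubility change mitosis vs G1/S (difference of NP-40 vs SDS log2 ratios) is given: synchronized HeLa Kyoto cells (double thymidine block for G1/S, nocodazole release for mitosis), protein amounts in NP-40 versus SDS lysates quantified by mass spectrometry, three biological replicates.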
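Wherever solubility in G1/S (NP-40 vs SDS abundance) is given: HeLa Kyoto cells arrested at G1/S by double thymidine block, proteins quantified by TMT10plex mass spectrometry in mild NP-40 versus SDS extracts, three biological replicates.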
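Wherever thermal stability score vs G1/S (z-score of summed log2 fold changes over temperatures) is given: synchronized HeLa Kyoto cells, proteins quantified by TMT10plex mass spectrometry, three biological replicates, mitosis taken 0.5 h after nocodazole release, G1/S directly after double thymidine block.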

Row | Sequence | solubility change mitosis (log2) (HeLa Kyoto [1]) | thermal stability score (HeLa Kyoto [2]; [5]) | thermal stability score (HeLa Kyoto [2]; cell cycle stage: mitosis) | solubility in G1/S (log2) (HeLa Kyoto [3]) | melting temperature (HeLa Kyoto [4]; cell cycle stage: G1/S) | melting temperature (HeLa Kyoto [4]; cell cycle stage: mitosis)
1 | MSTGTFVVSQPLNYRGGARVEPADASGTEKAFEPATGRVIATFTCSGEKEVNLAVQNAKAAFKIWSQKSGMERCRILLEAARIIREREDEIATMECINNGKSIFEARLDIDISWQCLEYYAGLAASMAGEHIQLPGGSFGYTRREPLGVCVGIGAWNYPFQIASWKSAPALACGNAMVFKPSPFTPVSALLLAEIYSEAGVPPGLFNVVQGGAATGQFLCQHPDVAKVSFTGSVPTGMKIMEMSAKGIKPVTLELGGKSPLIIFSDCDMNNAVKGALMANFLTQGQVCCNGTRVFVQKEILDKFTEEVVKQTQRIKIGDPLLEDTRMGPLINRPHLERVLGFVKVAKEQGAKVLCGGDIYVPEDPKLKDGYYMRPCVLTNCRDDMTCVKEEIFGPVMSILSFDTEAEVLERANDTTFGLAAGVFTRDIQRAHRVVAELQAGTCFINNYNVSPVELPFGGYKKSGFGRENGRVTIEYYSQLKTVCVEMGDVESAF [ALDH9A1] | -0.0784 | 0.248 | -0.642 | 0.24 | 57.1 °C | 57.3 °C
2 | MSTLYVSPHPDAFPSLRALIAARYGEAGEGPGWGGAHPRICLQPPPTSRTPFPPPRLPALEQGPGGLWVWGATAVAQLLWPAGLGGPGGSRAAVLVQQWVSYADTELIPAACGATLPALGLRSSAQDPQAVLGALGRALSPLEEWLRLHTYLAGEAPTLADLAAVTALLLPFRYVLDPPARRIWNNVTRWFVTCVRQPEFRAVLGEVVLYSGARPLSHQPGPEAPALPKTAAQLKKEAKKREKLEKFQQKQKIQQQQPPPGEKKPKPEKREKRDPGVITYDLPTPPGEKKDVSGPMPDSYSPRYVEAAWYPWWEQQGFFKPEYGRPNVSAANPRGVFMMCIPPPNVTGSLHLGHALTNAIQDSLTRWHRMRGETTLWNPGCDHAGIATQVVVEKKLWREQGLSRHQLGREAFLQEVWKWKEEKGDRIYHQLKKLGSSLDWDRACFTMDPKLSAAVTEAFVRLHEEGIIYRSTRLVNWSCTLNSAISDIEVDKKELTGRTLLSVPGYKEKVEFGVLVSFAYKVQGSDSDEEVVVATTRIETMLGDVAVAVHPKDTRYQHLKGKNVIHPFLSRSLPIVFDEFVDMDFGTGAVKITPAHDQNDYEVGQRHGLEAISIMDSRGALINVPPPFLGLPRFEARKAVLVALKERGLFRGIEDNPMVVPLCNRSKDVVEPLLRPQWYVRCGEMAQAASAAVTRGDLRILPEAHQRTWHAWMDNIREWCISRQLWWGHRIPAYFVTVSDPAVPPGEDPDGRYWVSGRNEAEAREKAAKEFGVSPDKISLQQDEDVLDTWFSSGLFPLSILGWPNQSEDLSVFYPGTLLETGHDILFFWVARMVMLGLKLTGRLPFREVYLHAIVRDAHGRKMSKSLGNVIDPLDVIYGISLQGLHNQLLNSNLDPSEVEKAKEGQKADFPAGIPECGTDALRFGLCAYMSQGRDINLDVNRILGYRHFCNKLWNATKFALRGLGKGFVPSPTSQPGGHESLVDRWIRSRLTEAVRLSNQGFQAYDFPAVTTAQYSFWLYELCDVYLECLKPVLNGVDQVAAECARQTLYTCLDVGLRLLSPFMPFVTEELFQRLPRRMPQAPPSLCVTPYPEPSECSWKDPEAEAALELALSITRAVRSLRADYNLTRIRPDCFLEVADEATGALASAVSGYVQALASAGVVAVLALGAPAPQGCAVALASDRCSIHLQLQGLVDPARELGKLQAKRVEAQRQAQRLRERRAASGYPVKVPLEVQEADEAKLQQTEAELRKVDEAIALFQKML [VARS] | -0.183 | -0.359 | -0.482 | -0.0962 | 51 °C | 50.5 °C
3 | MSVGFIGAGQLAFALAKGFTAAGVLAAHKIMASSPDMDLATVSALRKMGVKLTPHNKETVQHSDVLFLAVKPHIIPFILDEIGADIEDRHIVVSCAAGVTISSIEKKLSAFRPAPRVIRCMTNTPVVVREGATVYATGTHAQVEDGRLMEQLLSSVGFCTEVEEDLIDAVTGLSGSGPAYAFTALDALADGGVKMGLPRRLAVRLGAQALLGAAKMLLHSEQHPGQLKDNVSSPGGATIHALHVLESGGFRSLLINAVEASCIRTRELQSMADQEQVSPAAIKKTILDKVKLDSPAGTALSPSGHTKLLPRSLAPAGKD [PYCR1] | -0.0764 | 0.0884 | -3.11 | 0.208 | 54.9 °C | 53.7 °C
